Test results published in paper PMC2762480.

Columns and labels:
[1] = target: s-dEGFRΔV (Drosophila EGF receptor extracellular region, domains I to IV) (Drosophila melanogaster); assay: AUC
[2] = target: s-dEGFRΔV/Spitz complex (Drosophila melanogaster) (UniProt Q01083); assay: AUC

Substance | Kd [1] | stoichiometry N [2]
s-dEGFRΔV (Drosophila EGF receptor extracellular region, domains I to IV) (domain or fragment) | 40 µM | 
s-dEGFRΔV/Spitz complex (from UniProt Q01083 29-143) |  | 2
